Entries after “also recorded” stand apart in the source; their conditions may differ.
Tests used:
[1] = target: T1, EHD2 (Mus musculus, UniProt Q8BH64); assay: Multiple turnover ATPase assay (nucleotide hydrolysis by HPLC) with or without Folch liposomes; format: biochemical; settings: presence or absence of Folch liposomes
T1 construct: Mouse EHD2 full-length protein and all mutants were expressed as N-terminal His-fusions followed by a PreScission cleavage site; His (N, cleaved yes); made in house; host or cells: Escherichia coli BL21 DE3 Rosetta
T1 sequence (Q8BH64 1-543): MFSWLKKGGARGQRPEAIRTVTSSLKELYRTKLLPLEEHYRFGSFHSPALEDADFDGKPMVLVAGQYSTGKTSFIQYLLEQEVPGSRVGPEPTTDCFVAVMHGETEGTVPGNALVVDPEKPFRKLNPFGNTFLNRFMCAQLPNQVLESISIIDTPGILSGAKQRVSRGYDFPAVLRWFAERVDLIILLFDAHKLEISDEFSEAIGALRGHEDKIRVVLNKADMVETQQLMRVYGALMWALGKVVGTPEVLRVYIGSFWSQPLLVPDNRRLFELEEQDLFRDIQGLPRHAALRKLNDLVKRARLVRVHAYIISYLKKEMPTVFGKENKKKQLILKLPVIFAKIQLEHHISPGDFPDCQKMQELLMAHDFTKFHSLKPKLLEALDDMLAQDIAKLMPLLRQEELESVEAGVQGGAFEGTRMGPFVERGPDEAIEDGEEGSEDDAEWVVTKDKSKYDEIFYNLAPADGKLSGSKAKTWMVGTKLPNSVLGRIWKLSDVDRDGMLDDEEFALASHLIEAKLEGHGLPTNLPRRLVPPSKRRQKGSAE
Description: (§1) Amino acid numbering corresponds to mouse EHD2. b, EHD2 binds to adenine nucleotides, as determined by ITC. For clarity, ΔΔH=ΔHn−ΔH1 is plotted. […] Images were acquired close to the basal cell surface. f, Nucleotide hydrolysis was measured by HPLC in the absence (empty symbols) or presence of Folch liposomes (filled symbols). Data represent mean and standard deviation for two (intrinisic reactions) or three (stimulated reactions) independent experiments.
ITC measurements were performed at 10° C. in 20 mM HEPES (pH 7.5), 300 mM NaCl, 2 mM MgCl2. Liposome binding assays were performed as described previously (www.endocytosis.org). Multiple turnover ATPase assays were performed in 20 mM HEPES (pH 7.5), 135 mM NaCl, 15 mM KCl, 1 mM MgCl2 at 30° C. with 10 μM EHD2 (or mutants) as enzyme and 100 μM ATP as substrate, in the absence or presence of 1 mg/ml Folch liposomes (Sigma-Aldrich).
Reactions were started by the addition of the protein to the final reaction mix and nucleotide hydrolysis was followed using standard HPLC measurement^27. Initial rates were determined by applying a linear fit to data points up to 40% nucleotide hydrolysis. For electron microscopic studies, 2.5 μM EHD2 in 20 mM HEPES (pH 7.5), 150 mM NaCl, 1 mM MgCl2 was incubated for 15 min at 25° C. in the presence of 1 mM nucleotide and 0.05 mg/ml (final concentration) of the indicated liposomes. Samples were spotted on carbon-coated copper grids (Canemco and Marivac) and negatively stained with 2% uranyl acetate.
We next monitored the effect of membrane-binding on the ATPase activity of. EHD2 under multiple-turnover conditions (10-fold excess of ATP over EHD2), in the presence and absence of Folch liposoines (FIG. 1f). The intrinsic/background ATPase activity is extremely slow (kobs=0.7 h^−1) but is stimulated 8-fold in the presence of Folch or PS liposomes (kobs=5.6 h^−1).

[2] = test system: HeLa cells; assay: Over-expression of EGFP-tagged EHD2 and mutants in HeLa cells (confocal / live imaging); format: cell-based; settings: 24 h after transfection, fixed
Description: as §1
Nucleotide hydrolysis was measured as described in FIG. 1f. In vitro tubulation activity of PS liposomes was analysed as described in FIG. 1d. f, EGFP-tagged mutants were over-expressed in HeLa cells. […] For each construct, three independent experiments with ≈50 cells/experiments were analysed.
Ultracentrifugation. Sedimentation velocity experiments were performed in a Beckman Optima XLA ultracentrifuge, using an An-60Ti rotor. Centrifugation was at 50,000 rev×min and 5° C. at an EHD2 concentration of 15 μM, with scans as fast as possible (˜1.5 min intervals). The data were analysed using DCDT+ v.2^44,45, with the partial specific volume for the protein (from the amino acid composition) and solvent density and viscosity calculated using Sednterp^46. Selected scans (at equal, ˜15 min intervals), and of g(s20,w) (the amount of material sedimenting between s20,w and (s20,w+δs)) and also the residuals for fitting the data with DCDT+, were plotted with the program profit v.5.6.7 (Quantum soft, Switzerland). Cell biology. N-terminal EGFP-tagged EHD2 and all mutants were over-expressed in HeLa cells from the pEGFP-C3 vector (Clontech). HeLa cells were grown as per ECACC guidelines with 10% fetal bovine serum and transfected using Genejuice (Novagen) for transient protein expression. 24 h after transfection, cells were fixed for 10 min at 37° C. in 3% paraformaldehyde and mounted. All confocal images were taken sequentially using a BioRad Radiance system and LaserSharp software (Biorad). For real-time microscopy, transfected cells on glass-bottom Petri dishes (WillCo Wells BV, Amsterdam) were washed with 25 mM HEPES (pH 7.5), 125 mM NaCl, 5 mM KCl, 10 mM D-glucose, 1 mM MgCl2, 2 mM CaCl), and epifluorescence images were taken using an Olympus IX70 microscope (Southhall, UK) and Argon laser (Melles Griot, Carlsbad, Calif.) with a Princeton instruments (Trenton, N.J.) cooled I-PentaMAX camera with MetaMorph software (Universal imaging).
EHD2 wild-type was over-expressed in HeLa cells for 24 h and imaged by EPI-fluorescence for approximately 30 min.
EHD2 T94A was over-expressed in HeLa cells for 24 h and imaged by EPI-fluorescence for approximately 30 min. […] EHD2 I157Q was over-expressed in HeLa cells for 24 h and imaged by EPI-fluorescence for approximately 30 min.

| Molecule | GTP hydrolysis by EHD2 (in words) [1] | distribution of EGFP-tagged protein over-expressed in HeLa cells [2] |
| --- | --- | --- |
| Nc1nc2c(ncn2[C@@H]2O[C@H](COP(=O)(O)OP(=O)(O)OP(=O)(O)O)[C@@H](O)[C@H]2O)c(=O)[nH]1 [GTP, reference compound] | not stimulated; also recorded: not hydrolysed |  |
| K324D: EHD2 polybasic cluster mutant (protein, UniProt Q8BH64 1-543, looked up, variant K324D) EH domain-containing protein 2: MFSWLKKGGARGQRPEAIRTVTSSLKELYRTKLLPLEEHYRFGSFHSPALEDADFDGKPMVLVAGQYSTGKTSFIQYLLEQEVPGSRVGPEPTTDCFVAVMHGETEGTVPGNALVVDPEKPFRKLNPFGNTFLNRFMCAQLPNQVLESISIIDTPGILSGAKQRVSRGYDFPAVLRWFAERVDLIILLFDAHKLEISDEFSEAIGALRGHEDKIRVVLNKADMVETQQLMRVYGALMWALGKVVGTPEVLRVYIGSFWSQPLLVPDNRRLFELEEQDLFRDIQGLPRHAALRKLNDLVKRARLVRVHAYIISYLKKEMPTVFGDENKKKQLILKLPVIFAKIQLEHHISPGDFPDCQKMQELLMAHDFTKFHSLKPKLLEALDDMLAQDIAKLMPLLRQEELESVEAGVQGGAFEGTRMGPFVERGPDEAIEDGEEGSEDDAEWVVTKDKSKYDEIFYNLAPADGKLSGSKAKTWMVGTKLPNSVLGRIWKLSDVDRDGMLDDEEFALASHLIEAKLEGHGLPTNLPRRLVPPSKRRQKGSAE |  | completely cytoplasmic distribution |
| K329D: EHD2 polybasic cluster mutant (protein, UniProt Q8BH64 1-543, looked up, variant K329D) EH domain-containing protein 2: MFSWLKKGGARGQRPEAIRTVTSSLKELYRTKLLPLEEHYRFGSFHSPALEDADFDGKPMVLVAGQYSTGKTSFIQYLLEQEVPGSRVGPEPTTDCFVAVMHGETEGTVPGNALVVDPEKPFRKLNPFGNTFLNRFMCAQLPNQVLESISIIDTPGILSGAKQRVSRGYDFPAVLRWFAERVDLIILLFDAHKLEISDEFSEAIGALRGHEDKIRVVLNKADMVETQQLMRVYGALMWALGKVVGTPEVLRVYIGSFWSQPLLVPDNRRLFELEEQDLFRDIQGLPRHAALRKLNDLVKRARLVRVHAYIISYLKKEMPTVFGKENKKDQLILKLPVIFAKIQLEHHISPGDFPDCQKMQELLMAHDFTKFHSLKPKLLEALDDMLAQDIAKLMPLLRQEELESVEAGVQGGAFEGTRMGPFVERGPDEAIEDGEEGSEDDAEWVVTKDKSKYDEIFYNLAPADGKLSGSKAKTWMVGTKLPNSVLGRIWKLSDVDRDGMLDDEEFALASHLIEAKLEGHGLPTNLPRRLVPPSKRRQKGSAE |  | completely cytoplasmic distribution |
| K327D: EHD2 polybasic cluster mutant (protein, UniProt Q8BH64 1-543, looked up, variant K327D) EH domain-containing protein 2: MFSWLKKGGARGQRPEAIRTVTSSLKELYRTKLLPLEEHYRFGSFHSPALEDADFDGKPMVLVAGQYSTGKTSFIQYLLEQEVPGSRVGPEPTTDCFVAVMHGETEGTVPGNALVVDPEKPFRKLNPFGNTFLNRFMCAQLPNQVLESISIIDTPGILSGAKQRVSRGYDFPAVLRWFAERVDLIILLFDAHKLEISDEFSEAIGALRGHEDKIRVVLNKADMVETQQLMRVYGALMWALGKVVGTPEVLRVYIGSFWSQPLLVPDNRRLFELEEQDLFRDIQGLPRHAALRKLNDLVKRARLVRVHAYIISYLKKEMPTVFGKENDKKQLILKLPVIFAKIQLEHHISPGDFPDCQKMQELLMAHDFTKFHSLKPKLLEALDDMLAQDIAKLMPLLRQEELESVEAGVQGGAFEGTRMGPFVERGPDEAIEDGEEGSEDDAEWVVTKDKSKYDEIFYNLAPADGKLSGSKAKTWMVGTKLPNSVLGRIWKLSDVDRDGMLDDEEFALASHLIEAKLEGHGLPTNLPRRLVPPSKRRQKGSAE |  | completely cytoplasmic distribution |
